From publication PMC8752778, “The RNA methyltransferase METTL8 installs m3C32 in mitochondrial tRNAsThr/Ser(UCN) to optimise tRNA structure and mitochondrial translation”

Assays:
[1] = target: T1, His14-MBP-METTL8 (Homo sapiens, UniProt B3KW44 1-407); experiment: fluorescence anisotropy; 30 mM phosphate pH 7.3, 200 mM KCl, 20 nM labelled oligonucleotide, 0-2 uM protein, 5 min at room temperature, measured at 22 C; conditions: protein: recombinant; tags: N-terminal His14-MBP; label: fluorescein (5' click per Methods); hairpin
T1 sequence: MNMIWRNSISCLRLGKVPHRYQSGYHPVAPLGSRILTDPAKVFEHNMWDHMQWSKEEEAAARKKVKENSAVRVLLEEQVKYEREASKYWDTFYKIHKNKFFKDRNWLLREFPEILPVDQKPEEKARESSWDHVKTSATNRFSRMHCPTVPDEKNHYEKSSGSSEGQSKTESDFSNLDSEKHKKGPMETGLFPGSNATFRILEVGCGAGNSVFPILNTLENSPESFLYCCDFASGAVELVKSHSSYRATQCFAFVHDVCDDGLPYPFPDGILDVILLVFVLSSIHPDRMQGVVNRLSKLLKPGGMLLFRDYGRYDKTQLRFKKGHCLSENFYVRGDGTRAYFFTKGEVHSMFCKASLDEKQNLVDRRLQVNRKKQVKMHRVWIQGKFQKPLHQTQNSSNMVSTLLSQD

[2] = target: T1, His14-MBP-METTL8; experiment: as above; conditions: protein: recombinant; tags: N-terminal His14-MBP; label: 5' fluorescein; hairpin
[3] = target: T1, His14-MBP-METTL8; experiment: fluorescence anisotropy; affinity similar to ASLs; Kd only in figure; 30 mM phosphate pH 7.3, 200 mM KCl, 20 nM labelled oligonucleotide, 0-2 uM protein, 5 min at room temperature, measured at 22 C; conditions: protein: recombinant; tags: N-terminal His14-MBP; label: fluorescein (5' click per Methods); single strand
[4] = target: T1, His14-MBP-METTL8; experiment: fluorescence anisotropy; up to 2 uM protein; 30 mM phosphate pH 7.3, 200 mM KCl, 20 nM labelled oligonucleotide, 0-2 uM protein, 5 min at room temperature, measured at 22 C; conditions: protein: recombinant; tags: N-terminal His14-MBP; label: 5' fluorescein
[5] = target: T1, His14-MBP-METTL8; experiment: fluorescence anisotropy; high affinity; lower than i6A37 ASL; Kd only in figure; 30 mM phosphate pH 7.3, 200 mM KCl, 20 nM labelled oligonucleotide, 0-2 uM protein, 5 min at room temperature, measured at 22 C; conditions: protein: recombinant; tags: N-terminal His14-MBP; label: fluorescein (5' hexynyl/6FAM azide click); hairpin
[6] = target: T1, His14-MBP-METTL8; experiment: fluorescence anisotropy; high affinity; Kd only in figure; 30 mM phosphate pH 7.3, 200 mM KCl, 20 nM labelled oligonucleotide, 0-2 uM protein, 5 min at room temperature, measured at 22 C; conditions: protein: recombinant; tags: N-terminal His14-MBP; label: fluorescein (5' click per Methods); hairpin

In the case of GUUGGCUUGAAACCAGCU (structured_RNA, m3C at strand position 6 (C32); i6A at strand position 11 (A37)) [mt-tRNASer(UCN) m3C32 i6A37 ASL], the binding signal [1] is reported as ~2.5 fold weaker than i6A37 ASL (N6).

In the case of GUUGGCUUGAAACCAGCU (structured_RNA, i6A at strand position 11 (A37)) [mt-tRNASer(UCN) i6A37 ASL], the Kd [2] is reported as 200 nM.

GUAAAAGUCGUAACAAAGGU (ssRNA) [Unstructured RNA R420]: binds [3].

GACAUACUGACCCUUCAAAUA (ssRNA) [Unstructured RNA 2]: binds [3].

GATGTGCAGCTGCACATC (ssDNA) [DNA oligonucleotide]: no binding [4].

GUUGGCUUGAAACCAGCU (structured_RNA) [mt-tRNASer(UCN) ASL unmodified]: binds [5].

UCGGGCCCAUACCCCGA (structured_RNA) [mt-tRNAMet ASL]: binds [6].
